The experiment addresses T1, muCDH19(44-770) with Flag tag (construct I, Mu EC1-5) (mouse).
T1 construct: leader left out; the entry starts at residue 44; also called Mo EC1-5; mouse Cadherin19
T1 chain: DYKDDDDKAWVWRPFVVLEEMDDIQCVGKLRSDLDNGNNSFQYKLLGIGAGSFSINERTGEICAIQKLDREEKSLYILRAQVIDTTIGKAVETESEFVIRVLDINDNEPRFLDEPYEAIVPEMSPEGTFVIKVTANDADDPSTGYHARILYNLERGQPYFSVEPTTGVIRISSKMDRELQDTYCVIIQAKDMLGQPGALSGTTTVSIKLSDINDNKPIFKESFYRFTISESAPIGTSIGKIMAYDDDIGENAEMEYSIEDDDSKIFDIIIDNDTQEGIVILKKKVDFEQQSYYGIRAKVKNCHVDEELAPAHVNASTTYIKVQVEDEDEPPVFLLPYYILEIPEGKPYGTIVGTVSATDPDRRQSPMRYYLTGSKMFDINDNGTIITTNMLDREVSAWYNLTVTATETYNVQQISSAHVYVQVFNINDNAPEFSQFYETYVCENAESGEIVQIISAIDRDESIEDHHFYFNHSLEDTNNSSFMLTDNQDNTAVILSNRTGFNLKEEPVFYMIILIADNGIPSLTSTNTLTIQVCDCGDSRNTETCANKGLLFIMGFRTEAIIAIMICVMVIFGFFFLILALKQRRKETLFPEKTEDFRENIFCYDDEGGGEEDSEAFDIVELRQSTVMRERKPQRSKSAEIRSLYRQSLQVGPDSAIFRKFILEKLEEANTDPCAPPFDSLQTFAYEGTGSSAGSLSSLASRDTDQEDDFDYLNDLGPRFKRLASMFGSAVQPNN
Description: flow cytometry, transfected 293T cells. Background: Flow cytometry measures light scatter and fluorescence of single cells or particles in a stream.
Description: The experiment included assaying the anti-CDH19 antibodies against mouse Cadherin19 to determine suitability for binning on these human/mouse chimeras.

B1: anti-CDH19 antibody 2G6 (Ab ID 13588) (antibody, human IgG1, lambda, V domains shown)
VH: QVQLVESGGGVVQPGRSLRLSCAASGFTFSSYGMHWVRQAPGKGLEWVAFIWYDGSNKYYADSVKDRFTISRDNSKNTLYLQMKSLRAEDTAVYYCARRAGIIGTIGYYYGMDVWGQGTTVTVSS
VL: SYELTQPPSVSVSPGQTASITCSGDRLGEKYTCWYQQRPGQSPLLVIYQDTKRPSGIPERFSGSNSGNTATLTISGTQAMDEADYYCQAWDSSTVVFGGGTKLTVLG
notes: Bin 4
In the case of B1, the binding result was “binds”.

Source of the values: US20220127354A1 (Amgen, published 2022).
